The results in this text go back to doi:10.1101/651877 (bioRxiv, 2019).

The target of series [1] is wild type Mfn2 with a C-terminal 3xFLAG tag (UniProt Q80U63). In words: native gel or EMSA. On the technique in general: In EMSA bound probe runs differently from free probe, usually more slowly.
Series [2] concerns the molecule itself. In words: native gel or EMSA.

In general, stoichiometry N refers to a count of units in the complex or per binding partner. For the molecule “wild type Mfn2 with a C-terminal 3xFLAG tag (from UniProt Q80U63 1-757) (natural protein)”, in series [1], the stoichiometry N was 2.

B1: Mfn2^S378P with a C-terminal 3xFLAG tag (natural protein, UniProt Q80U63 1-757, looked up)
chain: MSLLFSRCNSIVTVKKDKRHMAEVNASPLKHFVTAKKKINGIFEQLGAYIQESASFLEDTHRNTELDPVTTEEQVLDVKGYLSKVRGISEVLARRHMKVAFFGRTSNGKSTVINAMLWDKVLPSGIGHTTNCFLRVGGTDGHEAFLLTEGSEEKKSVKTVNQLAHALHQDEQLHAGSMVSVMWPNSKCPLLKDDLVLMDSPGIDVTTELDSWIDKFCLDADVFVLVANSESTLMQTEKQFFHKVSERLSRPNIFILNNRWDASASEPEYMEEVRRQHMERCTSFLVDELGVVDRAQAGDRIFFVSAKEVLSARVQKAQGMPEGGGALAEGFQVRMFEFQNFERQFEECISQSAVKTKFEQHTVRAKQIAEAVRLIMDPLHIAAQEQRVYCLEMREERQDRLRFIDKQLELLAQDYKLRIKQITEEVERQVSTAMAEEIRRLSVLVDEYQMDFHPSPVVLKVYKNELHRHIEEGLGRNLSDRCSTAIASSLQTMQQDMIDGLKPLLPVSMRNQIDMLVPRQCFSLSYDLNCDKLCADFQEDIEFHFSLGWTMLVNRFLGPKNSRRALLGYSDQVQRPLPLTPANPSMPPLPQSSLTQEELMVSMVTGLASLTSRTSMGILVVGGVVWKAVGWRLIALSFGLYGLLYVYERLTWTTKAKERAFKRQFVEYASEKLQLIISYTGSNCSHQVQQELSGTFAHLCQQVDITRDNLEQEIAAMNKKVEALDSLQSRAKLLRNKAGWLDSELNMFTHQYLQPSR
In the case of B1, in series [2], the “stoichiometry N” value was 2.

B2: Mfn2^Q386P with a C-terminal 3xFLAG tag (natural protein, UniProt Q80U63 1-757, looked up)
chain: MSLLFSRCNSIVTVKKDKRHMAEVNASPLKHFVTAKKKINGIFEQLGAYIQESASFLEDTHRNTELDPVTTEEQVLDVKGYLSKVRGISEVLARRHMKVAFFGRTSNGKSTVINAMLWDKVLPSGIGHTTNCFLRVGGTDGHEAFLLTEGSEEKKSVKTVNQLAHALHQDEQLHAGSMVSVMWPNSKCPLLKDDLVLMDSPGIDVTTELDSWIDKFCLDADVFVLVANSESTLMQTEKQFFHKVSERLSRPNIFILNNRWDASASEPEYMEEVRRQHMERCTSFLVDELGVVDRAQAGDRIFFVSAKEVLSARVQKAQGMPEGGGALAEGFQVRMFEFQNFERQFEECISQSAVKTKFEQHTVRAKQIAEAVRLIMDSLHIAAQEPRVYCLEMREERQDRLRFIDKQLELLAQDYKLRIKQITEEVERQVSTAMAEEIRRLSVLVDEYQMDFHPSPVVLKVYKNELHRHIEEGLGRNLSDRCSTAIASSLQTMQQDMIDGLKPLLPVSMRNQIDMLVPRQCFSLSYDLNCDKLCADFQEDIEFHFSLGWTMLVNRFLGPKNSRRALLGYSDQVQRPLPLTPANPSMPPLPQSSLTQEELMVSMVTGLASLTSRTSMGILVVGGVVWKAVGWRLIALSFGLYGLLYVYERLTWTTKAKERAFKRQFVEYASEKLQLIISYTGSNCSHQVQQELSGTFAHLCQQVDITRDNLEQEIAAMNKKVEALDSLQSRAKLLRNKAGWLDSELNMFTHQYLQPSR
On to B2, for which the “stoichiometry N” value in series [2] came out at 2.

B3: Mfn2^A383V with a C-terminal 3xFLAG tag (natural protein, UniProt Q80U63 1-757, looked up)
chain: MSLLFSRCNSIVTVKKDKRHMAEVNASPLKHFVTAKKKINGIFEQLGAYIQESASFLEDTHRNTELDPVTTEEQVLDVKGYLSKVRGISEVLARRHMKVAFFGRTSNGKSTVINAMLWDKVLPSGIGHTTNCFLRVGGTDGHEAFLLTEGSEEKKSVKTVNQLAHALHQDEQLHAGSMVSVMWPNSKCPLLKDDLVLMDSPGIDVTTELDSWIDKFCLDADVFVLVANSESTLMQTEKQFFHKVSERLSRPNIFILNNRWDASASEPEYMEEVRRQHMERCTSFLVDELGVVDRAQAGDRIFFVSAKEVLSARVQKAQGMPEGGGALAEGFQVRMFEFQNFERQFEECISQSAVKTKFEQHTVRAKQIAEAVRLIMDSLHIAVQEQRVYCLEMREERQDRLRFIDKQLELLAQDYKLRIKQITEEVERQVSTAMAEEIRRLSVLVDEYQMDFHPSPVVLKVYKNELHRHIEEGLGRNLSDRCSTAIASSLQTMQQDMIDGLKPLLPVSMRNQIDMLVPRQCFSLSYDLNCDKLCADFQEDIEFHFSLGWTMLVNRFLGPKNSRRALLGYSDQVQRPLPLTPANPSMPPLPQSSLTQEELMVSMVTGLASLTSRTSMGILVVGGVVWKAVGWRLIALSFGLYGLLYVYERLTWTTKAKERAFKRQFVEYASEKLQLIISYTGSNCSHQVQQELSGTFAHLCQQVDITRDNLEQEIAAMNKKVEALDSLQSRAKLLRNKAGWLDSELNMFTHQYLQPSR
As to B3, the “stoichiometry N” value in series [2] turned out to be 2.

B4: Mfn2^C390F with a C-terminal 3xFLAG tag (natural protein, UniProt Q80U63 1-757, looked up)
chain: MSLLFSRCNSIVTVKKDKRHMAEVNASPLKHFVTAKKKINGIFEQLGAYIQESASFLEDTHRNTELDPVTTEEQVLDVKGYLSKVRGISEVLARRHMKVAFFGRTSNGKSTVINAMLWDKVLPSGIGHTTNCFLRVGGTDGHEAFLLTEGSEEKKSVKTVNQLAHALHQDEQLHAGSMVSVMWPNSKCPLLKDDLVLMDSPGIDVTTELDSWIDKFCLDADVFVLVANSESTLMQTEKQFFHKVSERLSRPNIFILNNRWDASASEPEYMEEVRRQHMERCTSFLVDELGVVDRAQAGDRIFFVSAKEVLSARVQKAQGMPEGGGALAEGFQVRMFEFQNFERQFEECISQSAVKTKFEQHTVRAKQIAEAVRLIMDSLHIAAQEQRVYFLEMREERQDRLRFIDKQLELLAQDYKLRIKQITEEVERQVSTAMAEEIRRLSVLVDEYQMDFHPSPVVLKVYKNELHRHIEEGLGRNLSDRCSTAIASSLQTMQQDMIDGLKPLLPVSMRNQIDMLVPRQCFSLSYDLNCDKLCADFQEDIEFHFSLGWTMLVNRFLGPKNSRRALLGYSDQVQRPLPLTPANPSMPPLPQSSLTQEELMVSMVTGLASLTSRTSMGILVVGGVVWKAVGWRLIALSFGLYGLLYVYERLTWTTKAKERAFKRQFVEYASEKLQLIISYTGSNCSHQVQQELSGTFAHLCQQVDITRDNLEQEIAAMNKKVEALDSLQSRAKLLRNKAGWLDSELNMFTHQYLQPSR
For the molecule B4, in series [2], the “stoichiometry N” value was determined as 2.
